These results are taken from CN113388035A (MABWELL SHANGHAI BIOTECHNOLOGY CO LTD; SHANGHAI PUMING …, dated 2021).

By Kd is commonly meant the free concentration of one partner at which half of the binding sites on the other are occupied at equilibrium, for simple one-to-one binding. Read a low Kd as a tighter complex. The koff is a measure of how fast the partners let go of each other. High values mean fast dissociation, low ones slow dissociation. Broadly, the kon is a measure of how fast the partners come together.

For one assay, the target named is T1, 人IL7 protein (human, UniProt P13232 26-177).
T1 construct: also called 人IL7蛋白
T1 sequence (looked up): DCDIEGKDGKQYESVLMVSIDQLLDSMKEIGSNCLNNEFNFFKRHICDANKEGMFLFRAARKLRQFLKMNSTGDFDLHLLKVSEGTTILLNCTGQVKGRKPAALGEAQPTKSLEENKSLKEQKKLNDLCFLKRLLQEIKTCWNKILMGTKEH
The assay can be described thus: ELISA, IL7 coated at 1ug/ml, HRP-goat anti-human IgG. For orientation: ELISA stands for enzyme-linked immunosorbent assay.

The target in assay [1] is T2, 人TSLP (human thymic stromal lymphopoietin) protein (human, UniProt Q969D9 29-159).
T2 construct: also called hTSLP; 人TSLP蛋白
The assay can be described thus: BLI (Fortebio), method of Example 2, antibody on probe, TSLP in solution. For orientation: BLI is a label-free optical method that tracks binding on a fibre tip over time.

Assay [2] addresses T2, 人TSLP (human thymic stromal …). The assay can be described thus: BLI (Fortebio), antibody captured on AMC probe, 100nM TSLP, 1:1 fit.
Assay [3] shares this target. In words: BLI (Fortebio), method of Example 2, antibody on probe, TSLP in solution. The source holds these as a separate data set.

B1: hzD01Hm5Lm4 (humanized, affinity-matured anti-human TSLP antibody) (antibody, human IgG2, V domains shown)
VH: EVQLVQSGAEVKKPGASVKVSCKASGYTFTNYFIDWVRQAPGQGLEWIGVIDAFSGGSNFNEKFKGRVTMTRDTSTSTAYMELSSLRSEDTAVYFCARESEVGEGFAYWGQGTLVTVSS
VL: DIQMTQSPSSLSASVGDRVTISCRASQDISNYLNWYQQKPGKAPKLLIYYTSTLHSGVPSRFSGSGSGTDYTLTISSLQPEDIATYFCQQGNTLPYTFGQGTKLEIK
notes: not shown: human kappa light chain constant region
On to B1, for which the binding result with 人IL7 protein was “no binding”. In assay [1], this molecule registered a Kd of 0.0637 nM, a Response of 0.368, a koff of 3.98e-05 s⁻¹ and a kon of 625000 M⁻¹ s⁻¹.

B2: hzD01Lm12 (humanized, affinity-matured anti-human TSLP antibody) (antibody, human IgG2, V domains shown)
VH: EVQLVQSGAEVKKPGASVKVSCKASGYTFTNYFIDWVRQAPGQGLEWIGVINPGSGGTNFNEKFKGRVTMTRDTSTSTAYMELSSLRSEDTAVYFCARESEVGEGFAYWGQGTLVTVSS
VL: DIQMTQSPSSLSASVGDRVTISCRASQDISNYLNWYQQKPGKAPKLLIYYTSTLHSGVPSRFSGSGSGTDYTLTISSLQPEDIATYFCQQFDTLPYPFGQGTKLEIK
notes: also called hzD01m12; not shown: human kappa light chain constant region
Regarding B2, the binding result in the assay with 人IL7 protein is “no binding”. In assay [1], this molecule showed a Kd of 0.0983 nM, a Response of 0.426, a koff of 6.08e-05 s⁻¹ and a kon of 619000 M⁻¹ s⁻¹.

B3: IgG D01 (murine anti-human TSLP monoclonal antibody, clone D01) (antibody, V domains shown)
VH: QVQLQQSGAELVRPGTSVKVSCKASGYAFTNYFIDWVKQRPGQGLEWIGVINPGSGGTNFNEKFKGKATLTADKSSSTAYMQLSSLTSEDSAVYFCARESEVGEGFAYWGQGTLVTVSA
VL: DIQMTQTSSSLSASLGDRVTISCRASQDISNYLNWYQQKPDGTVKLLIYYTSTLHSGVPSRFSGSGSGTDYSLTISNLEQEDIATYFCQQGNTLPYTFGGGTKLEIK
notes: Murine hybridoma IgG, kappa light chain amplified; also called 克隆D01
For the molecule B3, in assay [2], the Kd was 2.83 nM, the koff worked out at 0.000225 s⁻¹ and the kon stood at 79600 M⁻¹ s⁻¹.

B4: xiD01 (anti-human TSLP chimeric antibody) (antibody, human IgG2, V domains shown)
VH: QVQLQQSGAELVRPGTSVKVSCKASGYAFTNYFIDWVKQRPGQGLEWIGVINPGSGGTNFNEKFKGKATLTADKSSSTAYMQLSSLTSEDSAVYFCARESEVGEGFAYWGQGTLVTVSA
VL: DIQMTQTSSSLSASLGDRVTISCRASQDISNYLNWYQQKPDGTVKLLIYYTSTLHSGVPSRFSGSGSGTDYSLTISNLEQEDIATYFCQQGNTLPYTFGGGTKLEIK
notes: also called 抗人TSLP嵌合抗体蛋白xiD01; not shown: human kappa light chain constant region
In assay [3], B4 showed a Kd of 0.985 nM, a koff of 0.000356 s⁻¹ and a kon of 361000 M⁻¹ s⁻¹.
